Assay results taken from patent US20080044436A1, “Method for Screening and Compositions for Treating Cancers” (priority 2004, published 2008).

Experiments:
ER = assay: GST pull-down, TReP-132 and ER; type: binding; conditions: GST pull-down with 35S-ER
Protocol: GST-TReP-132 wt was analyzed in terms of the interaction with the ^35[S]-ER, as described previously.
In order to evaluate the interaction of TReP-132, Sp1, ER and PR, the wt and mutant GST-TReP-132 fusion proteins were expressed, then immobilized on glutathione-Sepharose as described (Frangioni and Neel, 1993; Monte et al., 1998). The ^35S-[Sp1], ^35S-[ER] and ^35S-[PR-B] proteins were synthesized in vitro using a rabbit reticulocyte lysate and T7 RNA polymerase system as directed by the manufacturer (Promega Corporation, Madison, Wis.). Proteins which bound, then detached from the Sepharose after being heated to boiling in SDS buffer were then separated on a 10% SDS-PAGE gel. The gels were stained with Coomassie blue, dried and autoradiographed.

cyclin A/CDK2 = assay: In vitro kinase assay of immunoprecipitated cyclin A/CDK2 (histone H1 substrate); type: biochemical, human; conditions: TReP-132 induced for 48 hours in HTO-GFP/TReP-132 cells
Description: FIG. 9A: Kinase activities of each immunoprecipitated cyclin or CDK were quantified using pRb as substrate to measure cyclin D1/CDK6 activity, or histone H1 to measure cyclin A/CDK2 activity. The levels of phosphorylation of histone H1 or pRb in induced HTO cells (HeLa Tet Off) are expressed in relation to the levels in non-induced HTO cells (corresponding to level 1.0).
Cells were washed twice with cold PBS (Phosphate Buffered Saline), then harvested either in cold RIPA buffer (1×PBS, 1% Nonidet P-40, 0.5% sodium deoxycholate, 0.1% SDS, phosphatase and protease inhibitors) for co-immunoprecipitation analysis, or in lysis buffer (50 mM Tris, pH 8.0, 0.1% IGEPAL (Sigma)) for kinase assays. […] The blots were then visualized with ECL reagent and quantified with SCANWISE and Perfect-IMAGE V-5.3 software (CLARA VISION, France).
The kinase activities on histone H1 or Rb protein in the immunoprecipitates were measured as follows: the immunoprecipitates were first washed once with 1 ml of assay buffer (50 mM Tris-HCl, pH 7.4, 10 mM MgCl2, 1 mM dithiothreitol (DTT)), then resuspended in 20 μl of assay buffer containing 1 mg/ml casein (Sigma) and 1 μg of histone H1 or Rb protein (769) (sc-4112) as substrate. […]
The reaction was stopped by addition of 15 μl of electrophoresis buffer (3×). […] Phosphorylated Rb and histones were quantified by densitometry.

HeLa cells = assay: Cell proliferation of HeLa Tet-off cells with inducible TReP-132 (HTO-GFP/TReP-132); type: cell-based, human; conditions: HTO-GFP/TReP-132 cells, Dox removed, after 4 days of culture; with Dox about 16 hours
Description: HeLa Tet-off cells expressing the tTA transactivator under the control of tetracycline or doxycycline (Dox) (Clontech Laboratories, Palo Alto, Calif.) were stably transfected with the pBI-EGFP-TReP-132 vector or the pBI-EGFP control vector. In order to select stably transfected cells, the pcDNA6 plasmid (Invitrogen, Ontario, CA) containing the blasticidin resistance gene was cotransfected at a ratio of 1:50. For these transfections, the cells were first seeded in 6-well plates at an initial density of 1×10^5 cells per well, incubated for 24 hours, then transfected with ExGen 500 (MBI Fermentas, Flamborough, Ontario, CA) at a ratio of 5 μl of ExGen 500 for a total of 1 μg of plasmid such as described hereinabove in the section “Colony formation assays”. 48 hours post-transfection, cells were selected for 2 weeks with blasticidin (Sigma-Aldrich CA Ltd.). Clearly visible colonies were then were picked and subcloned on 12-well plates to enable growth. […]
The cell proliferation rate was determined by the cellular DNA content using the fluorochorome DABA ([…]). […] Fluorescence was measured on a Perkin-Elmer LS-2B Filter Fluorimeter at an excitation wavelength of 400 nm and an emission wavelength of 508 nm. The DNA content was calculated from a standard curve of known quantities of salmon sperm DNA.

B1: TReP-132: Transcriptional Regulating Protein of 132 kDa, polypeptide comprising SEQ ID NO: 2; here expressed in cells from vectors (protein)
chain: MGDQQLYKTNHVAHGSENLFYQQPPLGVHSGLNHNYGNAVTGGGMDAPQASPISPHFPQDTRDGLGLPVGSKNLGQMDTSRQGGWGSHAGPGNHVQLRGNLANSNMMWGAPAQAEPTDGYQYTYSQASEIRTQKLTSGVLHKLDSFTQVFANQNLRIQVNNMAQVLHTQSAVMDGAPDSALRQLLSQKPMEPPAPAIPSRYQQVPQQPHPGFTGGLSKPALQVGQHPTQGHLYYDYQQPLAQVPVQGGQPLQAPQMLSQHMQQMQQHQYYPPQQQQQAGQQRISMQEIQTQPQQIRPSQPQPPPQQQQPQQLQLQQRQGSMQIPQYYQPQPMMQHLQEQQQQQMHLQPPSYHRDPHQYTPEQAHTVQLIPLGSMSQYYYQEPQQPYSHPLYQQSHLSQHQQREDSQLKTYSSDRQAQAMLSSHGDLGPPDTGMGDPASSDLTRVSSTLPHRPLLSPSGIHLNNMGPQHQQLSPSAMWPQMHLPDGRAQPGSPESSGQPKGAFGEQFDAKNKLTCSICLKEFKNLPALNGHMRSHGGMRASPNLKQEEGEKVLPPQPQPPLPPPPPPPPPPQLPPEAESLTPMVMPVSVPVKLLPPKPSSQGFTNSTVAAPSARDKPASSMSDDEMPVLEIPRKHQPSVPKAEEPLKTVQEKKKFRHRPEPLFIPPPPSYNPNPAASYSGATLYQSQLRSPRVLGDHLLLDPTHELPPYTPPPMLSPVRQGSGLFSNVLISGHGPGAHPQLPLTPLTPTPRVLLCRSNSIDGSNVTVTPGPGEQTVDVEPRINIGLRFQAEIPELQDISALAQDTHKATLVWKPWPELENHDLQQRVENLLNLCCSSALPGGGTNSEFALHSLFEAKGDVMVALEMLLLRKPVRLKCHPLANYHYAGSDKWTSLERKLFNKALATYSKDFIFVQKMVKSKTVAQCVEYYYTWKKIMRLGRKHRTRLAEIIDDCVTSEEEEELEEEEEEDPEEDRKSTKEEESEVPKSPEPPPVPVLAPTEGPPLQALGQPSGSFICEMPNCGAVFSSRQALNGHARIHGGTNQVTKARGAIPSGKQKPGGTQSGYCSVKSSPSHSTTSGETDPTTIFPCKECGKVFFKIKSRNAHMKTHRQQEEQQRQKAQKAAFAAEMAATIERTTGPVGAPGLLPLDQLSLIKPIKDVDILDDDVVQQLGGVMEEAEVVDTDLLLDDQDSVLLQGDAEL
- interaction with ER (ER): interact
- in vitro kinase activity of cyclin A/CDK2 (cyclin A/CDK2): reduced
- doubling time (HeLa cells): approximately 60 hours
